Earlier results on two substances are cited in publication PMC3772054.

A word on the Kd: it is the constant that tells how readily two partners part at equilibrium.

One data set addresses IL-2Rα (Homo sapiens) (UniProt P01589).
The next data set addresses IL-15Rα (Homo sapiens) (UniProt Q13261).
Chain of UniProt Q13261 (Q13261 31-205): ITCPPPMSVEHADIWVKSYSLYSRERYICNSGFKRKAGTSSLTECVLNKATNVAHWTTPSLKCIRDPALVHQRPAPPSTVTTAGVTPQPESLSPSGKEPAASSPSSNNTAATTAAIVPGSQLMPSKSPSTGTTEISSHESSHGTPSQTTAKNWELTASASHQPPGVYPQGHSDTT

Chain of UniProt P01589 (P01589 22-240): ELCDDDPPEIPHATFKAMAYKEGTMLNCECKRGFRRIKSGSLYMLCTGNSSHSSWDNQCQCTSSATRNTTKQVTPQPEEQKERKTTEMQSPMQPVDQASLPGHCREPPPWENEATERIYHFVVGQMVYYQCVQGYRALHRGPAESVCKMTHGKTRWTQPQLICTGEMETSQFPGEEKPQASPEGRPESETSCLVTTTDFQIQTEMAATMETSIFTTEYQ

As for IL-2 (from UniProt P60568), the Kd with IL-2Rα (Homo sapiens) was 4.8 nM.

With IL-15 (from UniProt P40933), in the data set with IL-15Rα (Homo sapiens), the dissociation constant (Kd) is 0.038 nM.
